According to article PMC7049685, “The C-terminal tail of the yeast mitochondrial transcription factor Mtf1 coordinates template strand alignment, DNA scrunching and timely transition into elongation” (Nucleic Acids Research, 2020):
Like-named read-outs stand apart in the source and are kept apart here.

Key:
[1] = biological target: T1, Rpo41-Mtf1 (yeast mitochondrial RNA polymerase with initiation factor Mtf1) on promoter DNA (Saccharomyces cerevisiae, UniProt P13433); assay: radiometric gel assay of 2-mer RNA synthesis, Michaelis-Menten fit; format: biochemical; settings: 21S rRNA AA promoter, [γ-32P]ATP, 1 μM Rpo41, 2 μM Mtf1-Δ20, 10 mM Mg acetate, pH 7.5, 25 °C
T1 construct: assembled on 15S or 21S rRNA promoter DNA; with Mitochondrial transcription factor 1
T1 sequence (P13433 1-1351): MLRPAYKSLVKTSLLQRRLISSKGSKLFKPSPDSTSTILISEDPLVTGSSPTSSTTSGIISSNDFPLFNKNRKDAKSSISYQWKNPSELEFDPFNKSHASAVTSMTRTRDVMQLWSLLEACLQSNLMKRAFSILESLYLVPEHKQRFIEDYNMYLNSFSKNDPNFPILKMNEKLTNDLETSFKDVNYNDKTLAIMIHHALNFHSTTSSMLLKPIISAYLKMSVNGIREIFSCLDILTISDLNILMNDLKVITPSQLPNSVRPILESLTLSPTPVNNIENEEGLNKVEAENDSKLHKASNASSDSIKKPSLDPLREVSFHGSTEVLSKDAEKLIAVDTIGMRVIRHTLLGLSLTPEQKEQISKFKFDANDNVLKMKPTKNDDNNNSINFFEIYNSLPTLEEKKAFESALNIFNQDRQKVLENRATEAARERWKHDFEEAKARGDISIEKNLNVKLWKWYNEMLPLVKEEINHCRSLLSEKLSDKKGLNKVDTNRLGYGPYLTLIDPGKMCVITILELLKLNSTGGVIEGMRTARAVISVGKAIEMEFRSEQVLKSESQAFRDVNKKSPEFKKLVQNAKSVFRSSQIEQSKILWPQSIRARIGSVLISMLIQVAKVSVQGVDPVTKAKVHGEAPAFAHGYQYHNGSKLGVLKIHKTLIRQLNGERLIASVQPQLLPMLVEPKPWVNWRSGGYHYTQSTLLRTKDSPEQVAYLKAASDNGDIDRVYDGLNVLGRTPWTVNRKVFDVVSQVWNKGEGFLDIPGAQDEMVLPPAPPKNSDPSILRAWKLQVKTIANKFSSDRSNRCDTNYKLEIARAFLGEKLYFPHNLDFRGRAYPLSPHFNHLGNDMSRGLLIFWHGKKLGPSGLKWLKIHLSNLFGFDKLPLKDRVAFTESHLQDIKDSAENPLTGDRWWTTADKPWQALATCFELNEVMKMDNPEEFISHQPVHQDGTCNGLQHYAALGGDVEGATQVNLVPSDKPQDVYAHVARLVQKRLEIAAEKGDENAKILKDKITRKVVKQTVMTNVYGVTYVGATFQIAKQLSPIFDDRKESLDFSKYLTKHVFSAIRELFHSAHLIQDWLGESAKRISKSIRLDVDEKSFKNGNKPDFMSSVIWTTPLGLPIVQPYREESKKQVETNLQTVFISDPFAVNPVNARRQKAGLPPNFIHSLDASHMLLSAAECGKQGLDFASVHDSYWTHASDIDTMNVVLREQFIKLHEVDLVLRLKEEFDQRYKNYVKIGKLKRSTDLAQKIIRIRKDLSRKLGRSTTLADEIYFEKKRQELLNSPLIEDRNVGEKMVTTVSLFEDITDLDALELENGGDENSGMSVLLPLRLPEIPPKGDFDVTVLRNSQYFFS
T1 sequence (P14908 2-341 partner): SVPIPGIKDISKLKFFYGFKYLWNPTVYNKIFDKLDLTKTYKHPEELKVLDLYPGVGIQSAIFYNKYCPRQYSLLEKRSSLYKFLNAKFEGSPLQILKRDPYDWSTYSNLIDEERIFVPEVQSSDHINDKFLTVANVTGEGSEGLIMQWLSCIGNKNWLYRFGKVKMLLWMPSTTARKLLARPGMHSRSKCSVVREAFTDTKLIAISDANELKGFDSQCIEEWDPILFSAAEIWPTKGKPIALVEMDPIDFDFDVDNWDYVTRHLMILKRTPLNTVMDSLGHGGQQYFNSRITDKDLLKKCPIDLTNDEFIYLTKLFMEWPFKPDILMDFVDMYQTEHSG

[2] = biological target: T1, Rpo41-Mtf1 (yeast mitochondrial RNA polymerase with initiation factor Mtf1) on promoter DNA; assay: 2-aminopurine fluorescence titration, hyperbolic fit; format: binding
[3] = biological target: T1, Rpo41-Mtf1 (yeast mitochondrial RNA polymerase with initiation factor Mtf1) on promoter DNA; assay: as above; format: binding; settings: composite Kd of +1 and +2 initiating ATP; 15S rRNA AA promoter with 2AP at -1 (200 nM), 400 nM Rpo41 and Mtf1-Δ20, 10 mM Mg acetate, pH 7.5, 25 °C
Rpo41;Mtf1-WT [4] = biological target: T2, Rpo41;Mtf1-WT (Saccharomyces cerevisiae;Saccharomyces …, UniProt P13433;P14908 28-1351;1-341, |); assay: fluorescence anisotropy; 10 mM Mg acetate; 50 mM Tris-acetate pH 7.5, 100 mM potassium glutamate, 10 mM magnesium acetate, 0.01% Tween-20, 25 °C; 5 nM TAMRA-DNA; settings: protein: recombinant;recombinant; tags: ;; copies: 1;1; label: TAMRA at 5' end of template strand (strand 2); blunt
Rpo41;Mtf1-Δ20 = Rpo41;Mtf1-Δ20 (Saccharomyces cerevisiae;Saccharomyces …, UniProt P13433;P14908 28-1351;1-321, |); assay: as above; settings: protein: recombinant;recombinant; tags: ;; copies: 1;1; label: TAMRA at 5' end of template strand (strand 2); blunt
Rpo41;Mtf1-Δ16 = Rpo41;Mtf1-Δ16 (Saccharomyces cerevisiae;Saccharomyces …, UniProt P13433;P14908 28-1351;1-325, |); assay: fluorescence anisotropy; 10 mM Mg acetate; Kd in Figure S2C table not in the material; 50 mM Tris-acetate pH 7.5, 100 mM potassium glutamate, 10 mM magnesium acetate, 0.01% Tween-20, 25 °C; 5 nM TAMRA-DNA; settings: protein: recombinant;recombinant; tags: ;; copies: 1;1; label: TAMRA at 5' end of template strand (strand 2); blunt
[5] = substrate: Nc1ncnc2c1ncn2[C@@H]1O[C@H](COP(=O)(O)OP(=O)(O)OP(=O)(O)O)[C@@H](O)[C@H]1O; assay: radiometric gel assay of 2-mer RNA synthesis, Michaelis-Menten fit; format: biochemical, Saccharomyces cerevisiae; settings: 21S rRNA AA promoter, [γ-32P]ATP, 1 μM Rpo41, 2 μM Mtf1, 10 mM Mg acetate, pH 7.5, 25 °C
Rpo41;Mtf1-WT [6] = biological target: T2, Rpo41;Mtf1-WT; assay: single-molecule FRET; no initiating nucleotides; EFRET 0.14 to 0.38; 50 mM Tris-acetate pH 7.5, 100 mM potassium glutamate, 10 mM magnesium acetate, 0.01% Tween-20, 25 °C; 5 nM TAMRA-DNA; settings: protein: recombinant;recombinant; tags: ;; copies: 1;1; label: FRET donor and acceptor (Cy3, Cy5)

Chain of Rpo41;Mtf1-Δ20 (P14908 1-321, stated change not applied, chain 2 of 2, one chain of several): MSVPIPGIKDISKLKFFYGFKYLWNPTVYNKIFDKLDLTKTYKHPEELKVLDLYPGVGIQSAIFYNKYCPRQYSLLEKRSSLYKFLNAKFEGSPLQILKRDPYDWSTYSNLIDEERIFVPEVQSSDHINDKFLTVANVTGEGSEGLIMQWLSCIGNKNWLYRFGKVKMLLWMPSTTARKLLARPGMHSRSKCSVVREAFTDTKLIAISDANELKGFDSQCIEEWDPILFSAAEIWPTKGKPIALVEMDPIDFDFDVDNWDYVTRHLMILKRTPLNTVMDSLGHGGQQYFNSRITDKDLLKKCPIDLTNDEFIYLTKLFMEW
Chain of Rpo41;Mtf1-Δ16 (P14908 1-325, stated change not applied, one chain of several): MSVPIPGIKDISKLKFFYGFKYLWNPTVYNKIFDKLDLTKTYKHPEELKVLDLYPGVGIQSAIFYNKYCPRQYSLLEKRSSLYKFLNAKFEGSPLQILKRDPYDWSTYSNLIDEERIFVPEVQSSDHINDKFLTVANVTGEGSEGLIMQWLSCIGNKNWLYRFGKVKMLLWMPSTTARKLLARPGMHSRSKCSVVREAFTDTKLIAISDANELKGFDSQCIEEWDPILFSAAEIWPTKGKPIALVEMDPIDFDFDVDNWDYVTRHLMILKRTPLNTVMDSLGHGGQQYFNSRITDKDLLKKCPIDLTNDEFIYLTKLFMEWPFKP

## Nc1ncnc2c1ncn2[C@@H]1O[C@H](COP(=O)(O)OP(=O)(O)OP(=O)(O)O)[C@@H](O)[C@H]1O [ATP]
[1]
  Km: 364 µM
[2]
  Kd: 65 µM
[3]
  Kd: 500 µM

B1: 15S rRNA AA promoter -12 to +8 (dsDNA)
DNA 1: TATTATATAAGTAATAAATA
DNA 2: TATTTATTACTTATATAATA
Rpo41;Mtf1-WT [4]
  Kd: 0.00012 ± 5e-05 µM
Rpo41;Mtf1-Δ20
  Kd: 0.00081 ± 0.0001 µM
Rpo41;Mtf1-Δ16
  binding signal: ~7 fold weaker than Mtf1-WT

B2: Rpo41-Mtf1 (yeast mitochondrial RNA polymerase with initiation factor Mtf1) on promoter DNA (Saccharomyces cerevisiae S288C) (protein)
chain: T1 sequence (P13433 1-1351)
notes: assembled on 15S or 21S rRNA promoter DNA; with Mitochondrial transcription factor 1
[5]
  Km: 165 µM
  kcat: 0.4 s⁻¹

B3: smFRET promoter DNA template (position 0) (dsDNA)
DNA 1: TGGCCACGGCAGCGAGGCTATTATATATATAAGTAGTAACAAGTAGAATA
DNA 2: TATTCTACTTGTTACTACTTATATATATAATAGCCTCGCTGCCGTGGCCA
Rpo41;Mtf1-WT [6]
  binding result: binds
